Data from publication doi:10.1101/2020.07.16.206169.
Like-named read-outs stand apart in the source and are kept apart here.

Assays:
[1] = target: PorZ from Porphyromonas gingivalis (Porphyromonas gingivalis) (UniProt Q9S3Q8); assay: MST
[2] = target: PorZ from Porphyromonas gingivalis (Porphyromonas gingivalis) (UniProt Q9S3Q8); assay: MST; remark: listed apart in the source

With “PorU sortase from Porphyromonas gingivalis, hexahistidine-tagged (from UniProt B2RGP6 1-1158) (enzyme)” the Kd [1] was 672 nM and the Kd [2] was 3380 nM.
